According to PMC8786865 (2022):

Target: SARS-CoV-2 spike protein receptor-binding domain (RBD) (SARS-CoV-2, UniProt P0DTC2 319-541)
Test: SPR

B1: #41 (antibody, V domains shown)
VH: QVQLVQSGAEVKKPGASVKVSCKVSGYTSPATIHWVRQAPGKGLEWMGGISPYKGDTIYAQKFQGRVTMTEDTSTDTAYMELSSLKSEDTAVYYCAKDSYYYDSSGSGLGGGFDYWGQGTLVTVSS
VL: DIQMTQSPSSVSASVGDRVTITCRASRDISSYLAWYQQKPGKAPKLLIYGASTRASGVPSRFSGSGSGTDFTLTISSLQPEDFANYYCLQYSIYPWTFGGGTKVEIK
Q: Which Kd does the source give for B1 here?
A: 0.295 nM
